Experimental data taken from patent US9284543B2, “Neutral active soluble truncated PH20 polypeptides and uses thereof” (Halozyme, Inc., priority 2008, dated 2016).

B1: SPAM1-ETEE: C-terminally truncated human PH20, precursor 477 aa (SEQ ID NO:23), mature 442 aa (SEQ ID NO:75) (protein, listed as Homo sapiens)
chain 1: MGVLKFKHIFFRSFVKSSGVSQIVFTFLLIPCCLTLNFRAPPVIPNVPFLWAWNAPSEFCLGKFDEPLDMSLFSFIGSPRINATGQGVTIFYVDRLGYYPYIDSITGVTVNGGIPQKISLQDHLDKAKKDITFYMPVDNLGMAVIDWEEWRPTWARNWKPKDVYKNRSIELVQQQNVQLSLTEATEKAKQEFEKAGKDFLVETIKLGKLLRPNHLWGYYLFPDCYNHHYKKPGYNGSCFNVEIKRNDDLSWLWNESTALYPSIYLNTQQSPVAATLYVRNRVREAIRVSKIPDAKSPLPVFAYTRIVFTDQVLKFLSQDELVYTFGETVALGASGIVIWGTLSIMRSMKSCLLLDNYMETILNPYIINVTLAAKMCSQVLCQEQGVCIRKNWNSSDYLHLNPDNFAIQLEKGGKFTVRGKPTLEDLEQFSEKFYCSCYSTLSCKEKADVKDTDAVDVCIADGVCIDAFLKPPMETEE
chain 2: LNFRAPPVIPNVPFLWAWNAPSEFCLGKFDEPLDMSLFSFIGSPRINATGQGVTIFYVDRLGYYPYIDSITGVTVNGGIPQKISLQDHLDKAKKDITFYMPVDNLGMAVIDWEEWRPTWARNWKPKDVYKNRSIELVQQQNVQLSLTEATEKAKQEFEKAGKDFLVETIKLGKLLRPNHLWGYYLFPDCYNHHYKKPGYNGSCFNVEIKRNDDLSWLWNESTALYPSIYLNTQQSPVAATLYVRNRVREAIRVSKIPDAKSPLPVFAYTRIVFTDQVLKFLSQDELVYTFGETVALGASGIVIWGTLSIMRSMKSCLLLDNYMETILNPYIINVTLAAKMCSQVLCQEQGVCIRKNWNSSDYLHLNPDNFAIQLEKGGKFTVRGKPTLEDLEQFSEKFYCSCYSTLSCKEKADVKDTDAVDVCIADGVCIDAFLKPPMETEE
modifications: HuPH20 precursor 1-477; Mature HuPH20 36-477
B2: SPAM1-TEEP: C-terminally truncated human PH20, precursor 478 aa (SEQ ID NO:22), mature 443 aa (SEQ ID NO:74) (protein, listed as Homo sapiens)
chain 1: MGVLKFKHIFFRSFVKSSGVSQIVFTFLLIPCCLTLNFRAPPVIPNVPFLWAWNAPSEFCLGKFDEPLDMSLFSFIGSPRINATGQGVTIFYVDRLGYYPYIDSITGVTVNGGIPQKISLQDHLDKAKKDITFYMPVDNLGMAVIDWEEWRPTWARNWKPKDVYKNRSIELVQQQNVQLSLTEATEKAKQEFEKAGKDFLVETIKLGKLLRPNHLWGYYLFPDCYNHHYKKPGYNGSCFNVEIKRNDDLSWLWNESTALYPSIYLNTQQSPVAATLYVRNRVREAIRVSKIPDAKSPLPVFAYTRIVFTDQVLKFLSQDELVYTFGETVALGASGIVIWGTLSIMRSMKSCLLLDNYMETILNPYIINVTLAAKMCSQVLCQEQGVCIRKNWNSSDYLHLNPDNFAIQLEKGGKFTVRGKPTLEDLEQFSEKFYCSCYSTLSCKEKADVKDTDAVDVCIADGVCIDAFLKPPMETEEP
chain 2: LNFRAPPVIPNVPFLWAWNAPSEFCLGKFDEPLDMSLFSFIGSPRINATGQGVTIFYVDRLGYYPYIDSITGVTVNGGIPQKISLQDHLDKAKKDITFYMPVDNLGMAVIDWEEWRPTWARNWKPKDVYKNRSIELVQQQNVQLSLTEATEKAKQEFEKAGKDFLVETIKLGKLLRPNHLWGYYLFPDCYNHHYKKPGYNGSCFNVEIKRNDDLSWLWNESTALYPSIYLNTQQSPVAATLYVRNRVREAIRVSKIPDAKSPLPVFAYTRIVFTDQVLKFLSQDELVYTFGETVALGASGIVIWGTLSIMRSMKSCLLLDNYMETILNPYIINVTLAAKMCSQVLCQEQGVCIRKNWNSSDYLHLNPDNFAIQLEKGGKFTVRGKPTLEDLEQFSEKFYCSCYSTLSCKEKADVKDTDAVDVCIADGVCIDAFLKPPMETEEP
modifications: HuPH20 precursor 1-478; Mature HuPH20 36-478
B3: SPAM1-EEPQ: C-terminally truncated human PH20, precursor 479 aa (SEQ ID NO:21), mature 444 aa (SEQ ID NO:73) (protein, listed as Homo sapiens)
chain 1: MGVLKFKHIFFRSFVKSSGVSQIVFTFLLIPCCLTLNFRAPPVIPNVPFLWAWNAPSEFCLGKFDEPLDMSLFSFIGSPRINATGQGVTIFYVDRLGYYPYIDSITGVTVNGGIPQKISLQDHLDKAKKDITFYMPVDNLGMAVIDWEEWRPTWARNWKPKDVYKNRSIELVQQQNVQLSLTEATEKAKQEFEKAGKDFLVETIKLGKLLRPNHLWGYYLFPDCYNHHYKKPGYNGSCFNVEIKRNDDLSWLWNESTALYPSIYLNTQQSPVAATLYVRNRVREAIRVSKIPDAKSPLPVFAYTRIVFTDQVLKFLSQDELVYTFGETVALGASGIVIWGTLSIMRSMKSCLLLDNYMETILNPYIINVTLAAKMCSQVLCQEQGVCIRKNWNSSDYLHLNPDNFAIQLEKGGKFTVRGKPTLEDLEQFSEKFYCSCYSTLSCKEKADVKDTDAVDVCIADGVCIDAFLKPPMETEEPQ
chain 2: B3 chain 1
modifications: HuPH20 precursor 1-479; Mature HuPH20 36-479
B4: SPAM1-PQIF: C-terminally truncated human PH20, precursor 481 aa (SEQ ID NO:19), mature 446 aa (SEQ ID NO:71) (protein, listed as Homo sapiens)
chain 1: MGVLKFKHIFFRSFVKSSGVSQIVFTFLLIPCCLTLNFRAPPVIPNVPFLWAWNAPSEFCLGKFDEPLDMSLFSFIGSPRINATGQGVTIFYVDRLGYYPYIDSITGVTVNGGIPQKISLQDHLDKAKKDITFYMPVDNLGMAVIDWEEWRPTWARNWKPKDVYKNRSIELVQQQNVQLSLTEATEKAKQEFEKAGKDFLVETIKLGKLLRPNHLWGYYLFPDCYNHHYKKPGYNGSCFNVEIKRNDDLSWLWNESTALYPSIYLNTQQSPVAATLYVRNRVREAIRVSKIPDAKSPLPVFAYTRIVFTDQVLKFLSQDELVYTFGETVALGASGIVIWGTLSIMRSMKSCLLLDNYMETILNPYIINVTLAAKMCSQVLCQEQGVCIRKNWNSSDYLHLNPDNFAIQLEKGGKFTVRGKPTLEDLEQFSEKFYCSCYSTLSCKEKADVKDTDAVDVCIADGVCIDAFLKPPMETEEPQIF
chain 2: LNFRAPPVIPNVPFLWAWNAPSEFCLGKFDEPLDMSLFSFIGSPRINATGQGVTIFYVDRLGYYPYIDSITGVTVNGGIPQKISLQDHLDKAKKDITFYMPVDNLGMAVIDWEEWRPTWARNWKPKDVYKNRSIELVQQQNVQLSLTEATEKAKQEFEKAGKDFLVETIKLGKLLRPNHLWGYYLFPDCYNHHYKKPGYNGSCFNVEIKRNDDLSWLWNESTALYPSIYLNTQQSPVAATLYVRNRVREAIRVSKIPDAKSPLPVFAYTRIVFTDQVLKFLSQDELVYTFGETVALGASGIVIWGTLSIMRSMKSCLLLDNYMETILNPYIINVTLAAKMCSQVLCQEQGVCIRKNWNSSDYLHLNPDNFAIQLEKGGKFTVRGKPTLEDLEQFSEKFYCSCYSTLSCKEKADVKDTDAVDVCIADGVCIDAFLKPPMETEEPQIF
modifications: HuPH20 precursor 1-481; Mature HuPH20 36-481
B5: SPAM1-EPQI: C-terminally truncated human PH20, precursor 480 aa (SEQ ID NO:20), mature 445 aa (SEQ ID NO:72) (protein, listed as Homo sapiens)
chain 1: MGVLKFKHIFFRSFVKSSGVSQIVFTFLLIPCCLTLNFRAPPVIPNVPFLWAWNAPSEFCLGKFDEPLDMSLFSFIGSPRINATGQGVTIFYVDRLGYYPYIDSITGVTVNGGIPQKISLQDHLDKAKKDITFYMPVDNLGMAVIDWEEWRPTWARNWKPKDVYKNRSIELVQQQNVQLSLTEATEKAKQEFEKAGKDFLVETIKLGKLLRPNHLWGYYLFPDCYNHHYKKPGYNGSCFNVEIKRNDDLSWLWNESTALYPSIYLNTQQSPVAATLYVRNRVREAIRVSKIPDAKSPLPVFAYTRIVFTDQVLKFLSQDELVYTFGETVALGASGIVIWGTLSIMRSMKSCLLLDNYMETILNPYIINVTLAAKMCSQVLCQEQGVCIRKNWNSSDYLHLNPDNFAIQLEKGGKFTVRGKPTLEDLEQFSEKFYCSCYSTLSCKEKADVKDTDAVDVCIADGVCIDAFLKPPMETEEPQI
chain 2: LNFRAPPVIPNVPFLWAWNAPSEFCLGKFDEPLDMSLFSFIGSPRINATGQGVTIFYVDRLGYYPYIDSITGVTVNGGIPQKISLQDHLDKAKKDITFYMPVDNLGMAVIDWEEWRPTWARNWKPKDVYKNRSIELVQQQNVQLSLTEATEKAKQEFEKAGKDFLVETIKLGKLLRPNHLWGYYLFPDCYNHHYKKPGYNGSCFNVEIKRNDDLSWLWNESTALYPSIYLNTQQSPVAATLYVRNRVREAIRVSKIPDAKSPLPVFAYTRIVFTDQVLKFLSQDELVYTFGETVALGASGIVIWGTLSIMRSMKSCLLLDNYMETILNPYIINVTLAAKMCSQVLCQEQGVCIRKNWNSSDYLHLNPDNFAIQLEKGGKFTVRGKPTLEDLEQFSEKFYCSCYSTLSCKEKADVKDTDAVDVCIADGVCIDAFLKPPMETEEPQI
modifications: HuPH20 precursor 1-480; Mature HuPH20 36-480

Tests used:
[1] = system: CHO-S cells; assay: Western blot analysis of PH20 expression in media and cells after transient expression; type: cell-based, Chinese Hamster; conditions: media versus cells
Outline: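 CHO-S cells were transiently transfected with mutant PH20-HZ24 plasmids using GeneJuice and expressed for 48-72 h at 37 °C, 5% CO2. Media and cells were harvested separately, with PI-PLC treatment used to release GPI-anchored protein. Non-reduced samples were blotted with rabbit anti-PH20 (0.5 μg/mL), and a band near 66 kDa was scored as PH20.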

[2] = Microtiter hyaluronidase activity assay with biotinylated-hyaluronic acid; type: biochemical; conditions: Table 6, 72 hour post transfection supernatant

Molecule | Expressed in Media [1] | pH 5.5 Activity [2] [Units/ml] | pH 7.4 Activity [2] [Units/ml]
B1 | YES | 2.0475 | 2.088
B2 | YES | 1.584 | 1.764
B3 | YES | 2.0745 | 1.917
B4 | YES | 1.701 | 1.818
B5 | YES | 1.6425 | 2.1825
